Laboratory results taken from patent US12679878B2, “CRF2 receptor agonists and their use in therapy” (SANOFI, priority 2020, dated 2026).
Starred links: 1 amine or outer side, 2 acyl side, 3 side chain; linkers in the order of their positions; H or OH if unused. Non-standard residues stand in square brackets, D forms with d. Groups on a side chain read outwards from the residue. No end group written: not given here. *: point of attachment. C20 diacid = O=C(O)CCCCCCCCCCCCCCCCCCC(=O)*; C18 diacid = O=C(O)CCCCCCCCCCCCCCCCC(=O)*; γGlu = O=C(O)[C@H](CCC(=O)[*:2])N[*:1]; AEEA = NCCOCCOCC(=O)O; Aib = CC(C)(N)C(=O)O

T1: anti-target CRF1R receptor (UniProt P34998 24-415, limits assumed)
T1 sequence (looked up): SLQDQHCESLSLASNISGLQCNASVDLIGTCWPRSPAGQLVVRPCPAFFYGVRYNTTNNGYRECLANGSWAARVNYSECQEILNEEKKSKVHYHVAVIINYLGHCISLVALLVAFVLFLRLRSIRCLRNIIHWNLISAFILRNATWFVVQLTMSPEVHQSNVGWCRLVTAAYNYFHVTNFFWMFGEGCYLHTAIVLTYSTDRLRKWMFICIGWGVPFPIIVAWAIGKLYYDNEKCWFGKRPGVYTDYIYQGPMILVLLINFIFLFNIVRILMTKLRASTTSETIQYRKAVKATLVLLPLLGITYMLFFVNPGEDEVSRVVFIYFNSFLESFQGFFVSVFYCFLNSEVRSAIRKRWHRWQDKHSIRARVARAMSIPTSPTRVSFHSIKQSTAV


How the values were obtained:
[1] = target: T1, anti-target CRF1R receptor; test: cell-based or functional assay
[2] = target: rat CRF2R α receptor (rat, UniProt P47866 20-411); test: cell-based or functional assay
Sequence of rat CRF2R α receptor (P47866 20-411): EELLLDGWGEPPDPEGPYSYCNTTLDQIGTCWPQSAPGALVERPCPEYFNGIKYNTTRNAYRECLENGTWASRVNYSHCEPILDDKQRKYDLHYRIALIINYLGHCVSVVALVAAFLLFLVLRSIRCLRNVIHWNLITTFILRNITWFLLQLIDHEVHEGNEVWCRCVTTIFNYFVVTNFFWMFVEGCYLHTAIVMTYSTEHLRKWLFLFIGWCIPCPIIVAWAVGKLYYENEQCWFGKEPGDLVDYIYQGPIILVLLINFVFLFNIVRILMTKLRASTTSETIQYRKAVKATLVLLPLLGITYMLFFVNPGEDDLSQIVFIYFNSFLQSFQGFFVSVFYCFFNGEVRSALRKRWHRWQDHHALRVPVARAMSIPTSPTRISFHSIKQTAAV

Row | EC50[nM] 0% HSA (cAMP, CRF1R-overexpression CHO cells) [1] | Emax (%) (cAMP, CRF1R-overexpression CHO cells) [1] | EC50 [nM], 0% HSA (cAMP, A7R5 cells) [2] | Binder
1 | > 1000 nM | 2.58% | 4.31 nM | IVLSLDVPIKLK([AEEA-AEEA-γGlu-C18 diacid])QILLEQERQKKQRQQAETN[Aib]QILAQV-NH2 (N-terminus assumed; SMILES CC[C@H](C)[C@H](N)C(=O)N[C@H](C(=O)N[C@@H](CC(C)C)C(=O)N[C@@H](CO)C(=O)N[C@@H](CC(C)C)C(=O)N[C@@H](CC(=O)O)C(=O)N[C@H](C(=O)N1CCC[C@H]1C(=O)N[C@H](C(=O)N[C@@H](CCCCN)C(=O)N[C@@H](CC(C)C)C(=O)N[C@@H](CCCCNC(=O)COCCOCCNC(=O)COCCOCCNC(=O)CC[C@H](NC(=O)CCCCCCCCCCCCCCCCC(=O)O)C(=O)O)C(=O)N[C@@H](CCC(N)=O)C(=O)N[C@H](C(=O)N[C@@H](CC(C)C)C(=O)N[C@@H](CC(C)C)C(=O)N[C@@H](CCC(=O)O)C(=O)N[C@@H](CCC(N)=O)C(=O)N[C@@H](CCC(=O)O)C(=O)N[C@@H](CCCNC(=N)N)C(=O)N[C@@H](CCC(N)=O)C(=O)N[C@@H](CCCCN)C(=O)N[C@@H](CCCCN)C(=O)N[C@@H](CCC(N)=O)C(=O)N[C@@H](CCCNC(=N)N)C(=O)N[C@@H](CCC(N)=O)C(=O)N[C@@H](CCC(N)=O)C(=O)N[C@@H](C)C(=O)N[C@@H](CCC(=O)O)C(=O)N[C@H](C(=O)N[C@@H](CC(N)=O)C(=O)NC(C)(C)C(=O)N[C@@H](CCC(N)=O)C(=O)N[C@H](C(=O)N[C@@H](CC(C)C)C(=O)N[C@@H](C)C(=O)N[C@@H](CCC(N)=O)C(=O)N[C@H](C(N)=O)C(C)C)[C@@H](C)CC)[C@@H](C)O)[C@@H](C)CC)[C@@H](C)CC)C(C)C)C(C)C) [peptide of SEQ ID NO: 72]
2 | > 1000 nM | 8.74% | 3.99 nM | IVLSLDVPIKLK([AEEA-AEEA-γGlu-C18 diacid])QILLEQEKQK[Aib]QREQAETNKQILAQV-NH2 (N-terminus assumed; SMILES CC[C@H](C)[C@H](N)C(=O)N[C@H](C(=O)N[C@@H](CC(C)C)C(=O)N[C@@H](CO)C(=O)N[C@@H](CC(C)C)C(=O)N[C@@H](CC(=O)O)C(=O)N[C@H](C(=O)N1CCC[C@H]1C(=O)N[C@H](C(=O)N[C@@H](CCCCN)C(=O)N[C@@H](CC(C)C)C(=O)N[C@@H](CCCCNC(=O)COCCOCCNC(=O)COCCOCCNC(=O)CC[C@H](NC(=O)CCCCCCCCCCCCCCCCC(=O)O)C(=O)O)C(=O)N[C@@H](CCC(N)=O)C(=O)N[C@H](C(=O)N[C@@H](CC(C)C)C(=O)N[C@@H](CC(C)C)C(=O)N[C@@H](CCC(=O)O)C(=O)N[C@@H](CCC(N)=O)C(=O)N[C@@H](CCC(=O)O)C(=O)N[C@@H](CCCCN)C(=O)N[C@@H](CCC(N)=O)C(=O)N[C@@H](CCCCN)C(=O)NC(C)(C)C(=O)N[C@@H](CCC(N)=O)C(=O)N[C@@H](CCCNC(=N)N)C(=O)N[C@@H](CCC(=O)O)C(=O)N[C@@H](CCC(N)=O)C(=O)N[C@@H](C)C(=O)N[C@@H](CCC(=O)O)C(=O)N[C@H](C(=O)N[C@@H](CC(N)=O)C(=O)N[C@@H](CCCCN)C(=O)N[C@@H](CCC(N)=O)C(=O)N[C@H](C(=O)N[C@@H](CC(C)C)C(=O)N[C@@H](C)C(=O)N[C@@H](CCC(N)=O)C(=O)N[C@H](C(N)=O)C(C)C)[C@@H](C)CC)[C@@H](C)O)[C@@H](C)CC)[C@@H](C)CC)C(C)C)C(C)C) [peptide of SEQ ID NO: 79]
3 | > 1000 nM | 12.7% | 5.2 nM | IVLSLDVPTKLK([AEEA-AEEA-γGlu-C20 diacid])QILLEQERQKKQREQAETN[Aib]QILAQV-NH2 (N-terminus assumed; SMILES CC[C@H](C)[C@H](N)C(=O)N[C@H](C(=O)N[C@@H](CC(C)C)C(=O)N[C@@H](CO)C(=O)N[C@@H](CC(C)C)C(=O)N[C@@H](CC(=O)O)C(=O)N[C@H](C(=O)N1CCC[C@H]1C(=O)N[C@H](C(=O)N[C@@H](CCCCN)C(=O)N[C@@H](CC(C)C)C(=O)N[C@@H](CCCCNC(=O)COCCOCCNC(=O)COCCOCCNC(=O)CC[C@H](NC(=O)CCCCCCCCCCCCCCCCCCC(=O)O)C(=O)O)C(=O)N[C@@H](CCC(N)=O)C(=O)N[C@H](C(=O)N[C@@H](CC(C)C)C(=O)N[C@@H](CC(C)C)C(=O)N[C@@H](CCC(=O)O)C(=O)N[C@@H](CCC(N)=O)C(=O)N[C@@H](CCC(=O)O)C(=O)N[C@@H](CCCNC(=N)N)C(=O)N[C@@H](CCC(N)=O)C(=O)N[C@@H](CCCCN)C(=O)N[C@@H](CCCCN)C(=O)N[C@@H](CCC(N)=O)C(=O)N[C@@H](CCCNC(=N)N)C(=O)N[C@@H](CCC(=O)O)C(=O)N[C@@H](CCC(N)=O)C(=O)N[C@@H](C)C(=O)N[C@@H](CCC(=O)O)C(=O)N[C@H](C(=O)N[C@@H](CC(N)=O)C(=O)NC(C)(C)C(=O)N[C@@H](CCC(N)=O)C(=O)N[C@H](C(=O)N[C@@H](CC(C)C)C(=O)N[C@@H](C)C(=O)N[C@@H](CCC(N)=O)C(=O)N[C@H](C(N)=O)C(C)C)[C@@H](C)CC)[C@@H](C)O)[C@@H](C)CC)[C@@H](C)O)C(C)C)C(C)C) [peptide of SEQ ID NO: 80]
4 | > 1000 nM | 2.7% | 1.71 nM | IVLSLDVPIKLK([AEEA-AEEA-γGlu-C18 diacid])QILLKQERQKKQRQQAETN[Aib]QILAQV-NH2 (N-terminus assumed; SMILES CC[C@H](C)[C@H](N)C(=O)N[C@H](C(=O)N[C@@H](CC(C)C)C(=O)N[C@@H](CO)C(=O)N[C@@H](CC(C)C)C(=O)N[C@@H](CC(=O)O)C(=O)N[C@H](C(=O)N1CCC[C@H]1C(=O)N[C@H](C(=O)N[C@@H](CCCCN)C(=O)N[C@@H](CC(C)C)C(=O)N[C@@H](CCCCNC(=O)COCCOCCNC(=O)COCCOCCNC(=O)CC[C@H](NC(=O)CCCCCCCCCCCCCCCCC(=O)O)C(=O)O)C(=O)N[C@@H](CCC(N)=O)C(=O)N[C@H](C(=O)N[C@@H](CC(C)C)C(=O)N[C@@H](CC(C)C)C(=O)N[C@@H](CCCCN)C(=O)N[C@@H](CCC(N)=O)C(=O)N[C@@H](CCC(=O)O)C(=O)N[C@@H](CCCNC(=N)N)C(=O)N[C@@H](CCC(N)=O)C(=O)N[C@@H](CCCCN)C(=O)N[C@@H](CCCCN)C(=O)N[C@@H](CCC(N)=O)C(=O)N[C@@H](CCCNC(=N)N)C(=O)N[C@@H](CCC(N)=O)C(=O)N[C@@H](CCC(N)=O)C(=O)N[C@@H](C)C(=O)N[C@@H](CCC(=O)O)C(=O)N[C@H](C(=O)N[C@@H](CC(N)=O)C(=O)NC(C)(C)C(=O)N[C@@H](CCC(N)=O)C(=O)N[C@H](C(=O)N[C@@H](CC(C)C)C(=O)N[C@@H](C)C(=O)N[C@@H](CCC(N)=O)C(=O)N[C@H](C(N)=O)C(C)C)[C@@H](C)CC)[C@@H](C)O)[C@@H](C)CC)[C@@H](C)CC)C(C)C)C(C)C) [peptide of SEQ ID NO: 75]
5 | > 1000 nM | 1.56% | 3.26 nM | IVLSLDVPIKLK([AEEA-AEEA-γGlu-C18 diacid])QILLKQERQKKQRQKAETNKQILAQV-NH2 (N-terminus assumed; SMILES CC[C@H](C)[C@H](N)C(=O)N[C@H](C(=O)N[C@@H](CC(C)C)C(=O)N[C@@H](CO)C(=O)N[C@@H](CC(C)C)C(=O)N[C@@H](CC(=O)O)C(=O)N[C@H](C(=O)N1CCC[C@H]1C(=O)N[C@H](C(=O)N[C@@H](CCCCN)C(=O)N[C@@H](CC(C)C)C(=O)N[C@@H](CCCCNC(=O)COCCOCCNC(=O)COCCOCCNC(=O)CC[C@H](NC(=O)CCCCCCCCCCCCCCCCC(=O)O)C(=O)O)C(=O)N[C@@H](CCC(N)=O)C(=O)N[C@H](C(=O)N[C@@H](CC(C)C)C(=O)N[C@@H](CC(C)C)C(=O)N[C@@H](CCCCN)C(=O)N[C@@H](CCC(N)=O)C(=O)N[C@@H](CCC(=O)O)C(=O)N[C@@H](CCCNC(=N)N)C(=O)N[C@@H](CCC(N)=O)C(=O)N[C@@H](CCCCN)C(=O)N[C@@H](CCCCN)C(=O)N[C@@H](CCC(N)=O)C(=O)N[C@@H](CCCNC(=N)N)C(=O)N[C@@H](CCC(N)=O)C(=O)N[C@@H](CCCCN)C(=O)N[C@@H](C)C(=O)N[C@@H](CCC(=O)O)C(=O)N[C@H](C(=O)N[C@@H](CC(N)=O)C(=O)N[C@@H](CCCCN)C(=O)N[C@@H](CCC(N)=O)C(=O)N[C@H](C(=O)N[C@@H](CC(C)C)C(=O)N[C@@H](C)C(=O)N[C@@H](CCC(N)=O)C(=O)N[C@H](C(N)=O)C(C)C)[C@@H](C)CC)[C@@H](C)O)[C@@H](C)CC)[C@@H](C)CC)C(C)C)C(C)C) [peptide of SEQ ID NO: 77]
